One assay deals with B.63521 gp140C. As to the kind of experiment: ELISA, OD405. (An ELISA detects its analyte on a solid surface through an enzyme-linked reagent.)
The next assay has as its target T1, B.Case A2 V1/V2 Tags.
T1 Env construct: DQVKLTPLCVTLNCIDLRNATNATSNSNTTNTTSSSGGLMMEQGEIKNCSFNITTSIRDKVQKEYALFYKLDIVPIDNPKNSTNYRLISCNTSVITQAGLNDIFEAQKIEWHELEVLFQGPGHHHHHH
As to the kind of experiment: ELISA, OD405.

The next assay concerns the target T2, B.63521_V1V2 Tags.
T2 Env construct: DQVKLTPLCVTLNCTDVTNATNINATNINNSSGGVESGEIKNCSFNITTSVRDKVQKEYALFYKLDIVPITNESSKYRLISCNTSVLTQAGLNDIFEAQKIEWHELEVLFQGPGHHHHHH
As to the kind of experiment: ELISA, OD405.

The next assay concerns the target B. 684-6 gp140C. Put plainly: ELISA, OD405.
The target of the next assay is Con 6 gp120. As to the kind of experiment: ELISA, OD405.
For assay [1], the target named is T3, B.62357 140C.
T3 construct: also called B.62357 gp140C
Put plainly: ELISA, OD405.

The target of assay [2] is B. 681-7 gp140C. As to the kind of experiment: ELISA, OD405.
Assay [3] addresses T4, A.9004SS V1V2 Tags.
T4 Env construct: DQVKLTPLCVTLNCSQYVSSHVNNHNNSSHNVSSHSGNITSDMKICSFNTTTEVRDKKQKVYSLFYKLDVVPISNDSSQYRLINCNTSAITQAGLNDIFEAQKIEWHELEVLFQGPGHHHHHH
As to the kind of experiment: ELISA, OD405.

In assay [4] the target is T5, AE.con gp140CF.
T5 construct: also called AE.con.env03 gp140CF
Put plainly: ELISA, OD405.

A further assay addresses T6, G.con gp140CF.
T6 construct: also called G.con.env03 gp140CF
As to the kind of experiment: ELISA, OD405.

Assay [5] deals with T7, D.9009SA V1V2 Tags.
T7 Env construct: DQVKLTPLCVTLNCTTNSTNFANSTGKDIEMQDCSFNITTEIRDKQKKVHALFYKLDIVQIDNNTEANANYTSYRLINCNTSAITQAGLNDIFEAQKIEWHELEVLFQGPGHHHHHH
Put plainly: ELISA, OD405.

Assay [6] concerns the target T8, B.con gp140CF.
T8 construct: also called B.con.env03 gp140CF
As to the kind of experiment: ELISA, OD405.

For another assay, the target named is T9, AE.A244 gp120 delta 11 (HIV-1).
T9 construct: also called E.A244gp120Δ11; AE.A244 Δ11 gp120
Put plainly: SPR, mAb captured on anti-Fc, monomeric gp120 injected. For orientation: SPR reads the build-up and loss of mass on a sensor chip optically.

Assay [7] concerns the target T4, A.9004SS V1V2 Tags. Put plainly: ELISA, OD405 at 10 ug/ml mAb.
The target of assay [8] is T5, AE.con gp140CF. Put plainly: ELISA, OD405 at 10 ug/ml mAb.
Assay [9] addresses T7, D.9009SA V1V2 Tags. Put plainly: ELISA, OD405 at 10 ug/ml mAb.
The target in the next assay is T10, C.1086 gp140.
T10 construct: also called C.1086gp140C
As to the kind of experiment: ELISA, OD405 at 10 ug/ml mAb.

Assay [10] addresses T11, gp70 B.CaseA2 V1/V2 (HIV-1 V1V2 on murine leukemia virus gp70).
T11 construct: also called B.gp70CaseA2 V1/V2; gp70 B.CaseAV1V2
T11 chain: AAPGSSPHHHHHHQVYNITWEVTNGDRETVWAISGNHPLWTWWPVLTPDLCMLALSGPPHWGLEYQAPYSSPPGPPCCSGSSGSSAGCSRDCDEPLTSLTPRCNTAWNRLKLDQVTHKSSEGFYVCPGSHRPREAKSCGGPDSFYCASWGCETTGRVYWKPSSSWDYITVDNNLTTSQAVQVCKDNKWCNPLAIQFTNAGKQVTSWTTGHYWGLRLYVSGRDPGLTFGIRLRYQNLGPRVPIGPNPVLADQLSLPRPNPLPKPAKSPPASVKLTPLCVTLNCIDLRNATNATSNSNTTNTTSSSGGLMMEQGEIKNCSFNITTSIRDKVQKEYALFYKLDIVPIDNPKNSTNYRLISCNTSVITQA
As to the kind of experiment: ELISA.

The target of assay [11] is T11, gp70 B.CaseA2 V1/V2. As to the kind of experiment: ELISA.
For another assay, the target named is T12, gp70 B.HXB2/BALV1V2 (murine leukemia virus; HIV-1).
T12 chain: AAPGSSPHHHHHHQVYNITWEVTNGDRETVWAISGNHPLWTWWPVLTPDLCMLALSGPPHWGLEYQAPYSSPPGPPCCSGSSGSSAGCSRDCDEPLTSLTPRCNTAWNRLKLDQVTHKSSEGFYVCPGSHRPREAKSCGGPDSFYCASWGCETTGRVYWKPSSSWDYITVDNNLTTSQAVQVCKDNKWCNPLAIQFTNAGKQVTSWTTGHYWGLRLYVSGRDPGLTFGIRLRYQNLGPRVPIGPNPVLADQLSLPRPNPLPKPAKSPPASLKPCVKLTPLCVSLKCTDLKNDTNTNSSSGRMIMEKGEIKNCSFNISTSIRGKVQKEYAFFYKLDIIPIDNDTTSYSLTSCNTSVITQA
Put plainly: ELISA.

Assay [12] addresses T3, B.62357 140C. Put plainly: ELISA, OD405. This is another data set of the same source.
Assay [13] addresses B. 681-7 gp140C. Put plainly: ELISA, OD405. The source holds these as a separate data set.
For assay [14], the target named is T4, A.9004SS V1V2 Tags. As to the kind of experiment: ELISA, OD405.
The target in assay [15] is T7, D.9009SA V1V2 Tags. Put plainly: ELISA, OD405.
Assay [16] deals with T8, B.con gp140CF. Put plainly: ELISA, OD405. This is another data set of the same source.

Where two headings read alike, the source gives them in different places.

B1: PG16 reverted unmutated ancestor antibody (antibody, V domains shown)
VH: QVQLVESGGGVVQPGRSLRLSCAASGFTFSSYGMHWVRQAPGKGLEWVAVISYDGSNKYYADSVKGRFTISRDNSKNTLYLQMNSLRAEDTAVYYCAREAGGPIWHDDVKYYDFNDGYYYYYYMDVWGKGTTVTVSS
VL: QSALTQPASVSGSPGQSITISCTGTSSDVGSYNLVSWYQQHPGKAPKLMIYEVSKRPSGVSNRFSGSKSGNTASLTISGLQAEDEADYYCCSLTDRSHRIFGGGTKLTVL
notes: also called PG16 RUA; PG16_RUA
B1: the binding result with B.63521 gp140C, with B.Case A2 V1/V2 Tags, in the assay with B.63521_V1V2 Tags, with B. 684-6 gp140C, with Con 6 gp120 and with B.62357 140C [1] was “no binding (tested: 10 ug/ml)” throughout. Also, the binding result with B. 681-7 gp140C [2], with A.9004SS V1V2 Tags [3], in the assay with AE.con gp140CF [4], with G.con gp140CF, with D.9009SA V1V2 Tags [5] and in the assay with B.con gp140CF [6] was “no binding (tested: 10 ug/ml)” throughout.

B2: CH59 (antibody, V domains shown)
VH: EVQLVESGGGLVQPGRSLRLSCAASGFTFDDGAMHWVRQAPGKGLEWVSGISWNSNIIAYADSVKGRFTISRDNAKNSLYLEMNSLRVEDTALYYCAKDSPRGELPLNYWGQGTLVTVSS
VL: SYELTQPPSVSVSPGQTARITCSGDALPKNYAYWYQQKSGQAPVLVIYEDSKRPSGIPERFSGSSSGTMATLTISGAQVEDEADYYCYSTDSSGNHRVFGGGTKLTVL
notes: also called mAb CH59
As a reminder, the Kd is the free concentration of one partner at which half of the binding sites on the other are occupied at equilibrium, for simple one-to-one binding. A higher Kd goes with lower affinity. Take B2: the Kd with AE.A244 gp120 delta 11 is 2.2 nM. The binding result in the assay with A.9004SS V1V2 Tags [7], with AE.con gp140CF [8], in the assay with D.9009SA V1V2 Tags [9] and with C.1086 gp140 was “binds” in each case.

B3: 697D (antibody, V domains shown)
VH: QVQLVQSGAEVKKPGSSVKVSCKASGGNFNTYTISWVRQAPGQGLEWMGRIIPIFGIVNPAQKFPGRVTINVDKSTNTAYMELSSLRSEDTAVYYCATSGVGLHFGYFDYWGQGTQVTVSS
VL: QSVLTQPPSVSGAPGQRVTISCTGSSSNIGAHYDVHWYQQLPGTAPKLLIYGNSNRPSGVPDRFSGSKSGTSASLAITGLQAEDEADYYCQSYDSSLSGYVFGTGTKVTVL
notes: also called mAb 697D; V2 conformational mAb 697D
In general, EC50 refers to the concentration at which the effect is half-maximal. High values mean lower potency in that assay, low ones higher potency in that assay. Take B3: the figures for the half-maximal effective concentration (EC50) in the assay with gp70 B.CaseA2 V1/V2 [10], with gp70 B.CaseA2 V1/V2 [11] and with gp70 B.HXB2/BALV1V2 were 0.04 mg/L, 0.05 nM and 0.64 nM, respectively.

B4: PG16 (antibody, V domains shown)
VH: QEQLVESGGGVVQPGGSLRLSCLASGFTFHKYGMHWVRQAPGKGLEWVALISDDGMRKYHSDSMWGRVTISRDNSKNTLYLQFSSLKVEDTAMFFCAREAGGPIWHDDVKYYDFNDGYYNYHYMDVWGKGTTVTVSS
VL: QSALTQPASVSGSPGQTITISCNGTSSDVGGFDSVSWYQQSPGKAPKVMVFDVSHRPSGISNRFSGSKSGNTASLTISGLHIEDEGDYFCSSLTDRSHRIFGGGTKVTVL
notes: also called mAb PG16; bnAb PG16
For B4, the binding result with B.62357 140C [12], in the assay with B. 681-7 gp140C [13], with A.9004SS V1V2 Tags [14], with D.9009SA V1V2 Tags [15] and with B.con gp140CF [16] was “no binding (tested: 10 ug/ml)” each time.
